According to patent US20240034779A1 (Takeda / Millennium, published 2024):

Key:
[1] = molecular target: T1, cynomolgus complement factor D (CFD) (cynomolgus monkey); experiment: SPR (Biacore), pH 7.4
T1 construct: also called cyno CFD; cynomolgus CFD

[2] = molecular target: T2, human complement factor D (CFD) (human, UniProt P00746 26-253, limits assumed); experiment: SPR (Biacore), pH 7.4; pH 7.4
T2 construct: also called human CFD; adipsin

[3] = molecular target: T2, human complement factor D (CFD); experiment: SPR (Biacore), pH 5.5
[4] = molecular target: T1, cynomolgus complement factor D (CFD); experiment: SPR (Biacore), pH 5.5

T2 sequence (P00746 26-253 limits assumed): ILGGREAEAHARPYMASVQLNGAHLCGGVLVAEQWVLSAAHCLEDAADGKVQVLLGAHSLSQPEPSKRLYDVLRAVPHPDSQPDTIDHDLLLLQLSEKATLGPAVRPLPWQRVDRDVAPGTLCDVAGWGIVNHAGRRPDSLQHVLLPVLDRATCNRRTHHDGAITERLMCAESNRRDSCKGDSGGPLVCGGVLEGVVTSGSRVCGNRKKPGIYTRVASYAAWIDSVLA

Kd [1]: 0.037 nM
Kd [2]: 0.002 nM
Kd [3]: 805 nM
Kd [4]: 4.59 nM
B1: anti-CFD antibody 2 (clone 169C8) (antibody, human IgG1, lambda, L234A L235A, V domains shown)
VH: EVQVQESGPGLVKPSQTLSLTCTVSGGSITTSYYAWSWIRQPPGKGLEWMGDIANDGSTYYSPSLESRTSISRDTSKNQFSLQLSSVTPEDTAVYYCARLRSLYTDYDPHYYDYWGQGTQVTVSS
VL: SSALTQPSALSVTKGQTAKITCQGDLLPRHYAHWYQQKTGQAPKLIVYDDDIRPSGIPERFSGSNSGGVATLTIAGAQAEDEADYHCQSADSNDDAVFGGGTHLTVLS
notes: also called anti-CFD mAb 2; ASHE mAb
